Consider 167 variants from the RNAGym collection of RNA variant scans (doi:10.7554/elife.80360).

To fix the notation:
B1: CPEB3 Ribozyme (parent)
chain: GGGGGCCACAGCAGAAGCGUUCACGUCGCGGCCCCUGUCAGAUUCUGGUGAAUCUGCGAAUUCUGCUGU

This series covers variants of B1. Put plainly: self-cleavage, relative activity (ratio to wild type); higher = more cleavage; co-transcriptional.
Take A10U G14A: the self-cleavage amounted to 0.622.

As to A10U G14C, the self-cleavage came to 0.482.

A10U C32A: the self-cleavage worked out at 0.93.

Consider A10U C32U, for which the self-cleavage was found to be 1.02.

Turning to A10U C32G, the self-cleavage turned out to be 0.64.

Consider A10U G58U, for which the self-cleavage came to 0.984.

As for A10U G58C, the self-cleavage came out at 1.02.

Take A10U C29U: the self-cleavage was 0.361.

As for A10U C29G, the self-cleavage is 0.431.

In the case of A10U G48U, the self-cleavage was 1.

As to A10G U69C, the self-cleavage is 1.06.

Turning to A10G U69A, the self-cleavage worked out at 0.981.

Take A10G U69G: the self-cleavage was 0.978.

Turning to A10U A13C, the self-cleavage was determined as 0.808.

A10G C66G: the self-cleavage is 0.35.

As for A10G C66U, the self-cleavage is 0.645.

For the variant A10G C39G, the self-cleavage was 0.595.

Take A10G C39U: the self-cleavage was determined as 0.633.

For the variant A10G C39A, the self-cleavage was found to be 0.42.

As to A10G G28U, the self-cleavage came out at 0.142.

For A10G G28A, the self-cleavage was 0.254.

Regarding G11A C33U, the self-cleavage is 0.908.

With G11A C33G, the self-cleavage turned out to be 0.733.

In the case of A10U A52G, the self-cleavage amounted to 1.03.

With A10U A52C, the self-cleavage was 1.

On to A10G G56A, for which the self-cleavage was found to be 0.784.

As for A10G G56U, the self-cleavage came out at 0.567.

For the variant A10G G56C, the self-cleavage was 0.473.

For A10G C57A, the self-cleavage turned out to be 0.322.

Take A10G C57G: the self-cleavage was 0.199.

Turning to A10G C57U, the self-cleavage was found to be 0.284.

As for A10G U46G, the self-cleavage was found to be 0.901.

With A10G U46C, the self-cleavage came to 0.907.

With A10U G37U, the self-cleavage was determined as 0.203.

As to A10U G37A, the self-cleavage is 0.322.

Take A10U G11U: the self-cleavage came to 0.908.

Take A10U G17C: the self-cleavage amounted to 0.168.

A10U G17U: the self-cleavage worked out at 0.512.

Regarding A10C U67G, the self-cleavage is 1.03.

A10C U67C: the self-cleavage worked out at 1.01.

Take G11A G41U: the self-cleavage is 0.342.

Consider G11A G41C, for which the self-cleavage was found to be 0.278.

For the variant G11A G41A, the self-cleavage came out at 0.276.

Regarding A10G U20G, the self-cleavage is 0.135.

In the case of A10G U20C, the self-cleavage was determined as 0.115.

Turning to G11A C57U, the self-cleavage is 0.332.

With G11A C57A, the self-cleavage worked out at 0.287.

As to A10G G68U, the self-cleavage is 0.917.

As to A10G G68A, the self-cleavage was 0.943.

In the case of A10G G68C, the self-cleavage stood at 0.941.

Regarding A10G C29G, the self-cleavage was found to be 0.225.

G11A A42G: the self-cleavage worked out at 0.586.

On to G11A A42U, for which the self-cleavage was 0.548.

With G11A A42C, the self-cleavage stood at 0.544.

As to A10G C32G, the self-cleavage was 0.762.

Take A10G C24G: the self-cleavage worked out at 0.297.

Turning to A10G C24U, the self-cleavage is 0.186.

Take A10G C24A: the self-cleavage stood at 0.615.

Consider A10U U62G, for which the self-cleavage stood at 0.896.

For A10U A23U, the self-cleavage stood at 1.

In the case of A10U A23G, the self-cleavage is 0.983.

A10U A23C: the self-cleavage amounted to 0.968.

Turning to A10U A42G, the self-cleavage came out at 0.899.

For the variant A10U A42U, the self-cleavage came to 0.999.

As for A10G U61C, the self-cleavage stood at 0.291.

Consider A10G U61G, for which the self-cleavage amounted to 0.468.

For A10G, the self-cleavage came out at 0.94.

In the case of A10U, the self-cleavage was found to be 1.

For the variant A10U G31C, the self-cleavage amounted to 0.262.

Regarding G11A G37C, the self-cleavage turned out to be 0.196.

As to G11A G37A, the self-cleavage was found to be 0.188.

For the variant A10U C45A, the self-cleavage stood at 0.998.

Regarding A10U C45U, the self-cleavage turned out to be 0.958.

Consider G11A G19C, for which the self-cleavage came out at 0.133.

G11A G19U: the self-cleavage was found to be 0.088.

As for A10U U61C, the self-cleavage stood at 0.781.

In the case of A10C U61G, the self-cleavage stood at 0.768.

A10C U61C: the self-cleavage was 0.763.

Turning to A10C U61A, the self-cleavage worked out at 0.937.

With A10U G41U, the self-cleavage turned out to be 0.86.

Regarding A10U G41A, the self-cleavage was determined as 0.844.

With G11A A15U, the self-cleavage is 0.574.

As to G11A A15G, the self-cleavage came to 0.807.

With G11A G30U, the self-cleavage came out at 0.32.

Take G11A G30A: the self-cleavage turned out to be 0.663.

In the case of G11A G30C, the self-cleavage stood at 0.672.

For A10G C45U, the self-cleavage was 0.901.

On to A10G C45A, for which the self-cleavage was determined as 0.784.

A10G G19U: the self-cleavage was 0.162.

As to A10G G19A, the self-cleavage was 0.157.

On to A10G G19C, for which the self-cleavage was 0.104.

In the case of A10U U38A, the self-cleavage worked out at 0.959.

A10U U38C: the self-cleavage amounted to 0.99.

As for A10U U38G, the self-cleavage turned out to be 0.154.

For the variant G11A C29A, the self-cleavage came out at 0.26.

In the case of G11A C29G, the self-cleavage was found to be 0.148.

G11A C29U: the self-cleavage came out at 0.0741.

Take A10G G25C: the self-cleavage came out at 0.125.

For A10U C34G, the self-cleavage came out at 1.01.

Consider A10U C34A, for which the self-cleavage came to 0.983.

Consider G11A G50C, for which the self-cleavage worked out at 0.715.

On to G11A G50U, for which the self-cleavage amounted to 0.927.

As for A10G C34A, the self-cleavage stood at 0.89.

For the variant A10G C34G, the self-cleavage worked out at 0.82.

As to A10G U55C, the self-cleavage was 0.407.

For the variant A10G U55A, the self-cleavage stood at 0.407.

On to A10G U62A, for which the self-cleavage was 0.578.

A10G U62G: the self-cleavage is 0.448.

As for A10U G56C, the self-cleavage worked out at 0.84.

In the case of A10U A15U, the self-cleavage was determined as 0.772.

Regarding A10U A15G, the self-cleavage is 0.999.

Consider A10U U67C, for which the self-cleavage was 1.

G11A A59U: the self-cleavage was 0.41.

Take A10C U49A: the self-cleavage stood at 1.02.

On to A10C U49C, for which the self-cleavage was 1.04.

Take G11A G17U: the self-cleavage turned out to be 0.142.

In the case of G11A G17A, the self-cleavage is 0.119.

For G11A G17C, the self-cleavage is 0.122.

For A10U U69A, the self-cleavage was found to be 1.02.

In the case of A10G G11A, the self-cleavage stood at 0.143.

Turning to A10G G11C, the self-cleavage worked out at 0.79.

Take A10G G11U: the self-cleavage was 0.743.

Regarding A10U C35U, the self-cleavage came to 0.976.

For A10C U44A, the self-cleavage was 0.959.

For the variant A10C U44C, the self-cleavage amounted to 0.92.

Consider A10G C54A, for which the self-cleavage came out at 0.527.

Turning to A10G C54U, the self-cleavage was 0.8.

With A10G C54G, the self-cleavage worked out at 0.404.

For G11A G56U, the self-cleavage was found to be 0.475.

On to G11A G56A, for which the self-cleavage stood at 0.708.

With A10G U53G, the self-cleavage came to 0.646.

With G11A A23G, the self-cleavage stood at 0.792.

Take G11A A23U: the self-cleavage came to 0.855.

Take G11A A23C: the self-cleavage is 0.775.

On to A10U U36A, for which the self-cleavage stood at 0.291.

A10U C39U: the self-cleavage came out at 0.984.

Turning to A10U C39G, the self-cleavage turned out to be 0.913.

A10U C39A: the self-cleavage came to 0.84.

For the variant A10U U46G, the self-cleavage stood at 1.01.

Regarding G11A G48C, the self-cleavage came to 0.951.

With G11A G48U, the self-cleavage came out at 0.885.

Consider A10U U49A, for which the self-cleavage is 0.989.

Turning to A10U U49G, the self-cleavage was 1.01.

Consider A10U U49C, for which the self-cleavage came to 1.

In the case of A10U C54U, the self-cleavage is 1.01.

In the case of A10C U64G, the self-cleavage is 0.804.

In the case of G11A C24G, the self-cleavage came out at 0.16.

Consider G11A C24A, for which the self-cleavage worked out at 0.345.

In the case of G11A C24U, the self-cleavage stood at 0.259.

On to A10U U20C, for which the self-cleavage amounted to 0.232.

As for A10U U20G, the self-cleavage worked out at 0.19.

For A10U U20A, the self-cleavage was found to be 0.122.

Consider A10U U44C, for which the self-cleavage is 0.949.

Consider A10U U44G, for which the self-cleavage came to 0.928.

In the case of A10G C63G, the self-cleavage amounted to 0.338.

Regarding A10G C63A, the self-cleavage came out at 0.253.

Consider A10G C63U, for which the self-cleavage was 0.615.

As for G11A A52C, the self-cleavage was found to be 0.865.

In the case of G11A A52U, the self-cleavage amounted to 0.837.

A10G G14U: the self-cleavage stood at 0.12.

Turning to A10G G14A, the self-cleavage stood at 0.195.

As to A10G U36C, the self-cleavage was determined as 0.761.

Take A10G U36A: the self-cleavage was determined as 0.117.

As for A10G U36G, the self-cleavage came out at 0.155.

Turning to A10G A60G, the self-cleavage was determined as 0.656.

As for A10U G25U, the self-cleavage is 0.162.

Regarding A10U G25C, the self-cleavage turned out to be 0.155.
